B1: 1.57b-4GS-1.1a (other)
chain: QVQLVESGGGLVKPGGSLRLSCAASGFTFSDNSMTWMRQAPGKGLEWVSYISSGGGVIFYADSVKGRFTISRDNAKNSLYLQMNSLRADDTAVYYCAREAPLRLGESPHDAFDISGQGTMVTVSSGGGGSGGGGSGGGGSGGGGSEVQLLESGGGSVQPGRSLRLSCAASGFTFDDHAMHWVRQAPGKGLEWVSGISWNSGSMGYADSVKDRFTISRDNAKSSLYLQMNSLRAEDTALYYCVREKGPGLTGSTADYYGLDVWGQGTMVTVSS
notes: Biparatopic VH-linker-VH
B2: 1.1b-6GS-1.1a (other)
chain: QVQLVESGGGLVKPGGSLRLSCAASGFTFSDYTMTWMRQAPGKGLEWVSYISTGGTIKYYTDSVKGRFTISRDNAKNSLYLQMNSLRADDTAVYYCAREAPLRLGESPHDAFDIWGQGTMVTVSSGGGGSGGGGSGGGGSGGGGSGGGGSGGGGSEVQLLESGGGSVQPGRSLRLSCAASGFTFDDHAMHWVRQAPGKGLEWVSGISWNSGSMGYADSVKDRFTISRDNAKSSLYLQMNSLRAEDTALYYCVREKGPGLTGSTADYYGLDVWGQGTMVTVSS
notes: Biparatopic VH-linker-VH
B3: 1.57b (VHH)
VHH: QVQLVESGGGLVKPGGSLRLSCAASGFTFSDNSMTWMRQAPGKGLEWVSYISSGGGVIFYADSVKGRFTISRDNAKNSLYLQMNSLRADDTAVYYCAREAPLRLGESPHDAFDISGQGTMVTVSS
B4: 1.1a (VHH)
VHH: EVQLLESGGGSVQPGRSLRLSCAASGFTFDDHAMHWVRQAPGKGLEWVSGISWNSGSMGYADSVKDRFTISRDNAKSSLYLQMNSLRAEDTALYYCVREKGPGLTGSTADYYGLDVWGQGTMVTVSS
notes: also called Humabody 1.1a; VH single domain antibody 1.1a

How the values were obtained:
[1] = molecular target: T1, human PD-1 expressed on cells (CHO TREX human PD1 cell line, full-length human PD-1 sequence) (human, UniProt Q15116 21-288); test: FMAT: inhibition of human Fc tagged human PD-L1 (400 pM) binding to CHO human PD-1 cells
T1 construct: Also used for human PD-1 on Jurkat reporter cells, on PathHunter cells and on PHA-stimulated human CD4+ T cells; also called CHO human PD1 cells; CHO human PD-1 cells
T1 sequence (Q15116 21-288): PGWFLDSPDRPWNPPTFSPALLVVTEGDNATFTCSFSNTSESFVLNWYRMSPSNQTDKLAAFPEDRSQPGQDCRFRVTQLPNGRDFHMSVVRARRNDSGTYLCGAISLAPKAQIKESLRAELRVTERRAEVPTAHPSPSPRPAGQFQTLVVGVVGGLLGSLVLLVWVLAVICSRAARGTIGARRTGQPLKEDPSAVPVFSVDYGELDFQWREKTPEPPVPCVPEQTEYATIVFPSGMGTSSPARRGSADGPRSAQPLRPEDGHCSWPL
Method: (§1) Purified VH were serially diluted in FMAT assay buffer and tested for binding to CHO human PD-1 cells as described above and for inhibition of human PD-L1/PD-L2 binding to CHO human PD-1 cells. All reagents and serially diluted VH were prepared in FMAT assay buffer. VH, buffer (total binding controls) or excess competitor (non-specific binding control) were incubated with 400 pM human Fc tagged human PD-L1 or 100 pM PDL-2, 4 nM anti human Fc-Alexa Fluor-488 and 2000 per well CHO human PD-1 DRAQ5 stained cells in a 384 well black clear-bottomed assay plates. Plates were incubated for 2 hours at room temperature then fluorescence measured in the FL2 (502 nm-537 nm) and FL5 (677-800 nm) channels on the Mirrorball plate reader (TTP) following excitation at 488 nm and 640 nm. Data was expressed as a % of the total binding control (i.e. % control) after subtraction of the background signal determined from the non-specific binding control wells. The results are shown in FIG. 5 and in Tables 8 and 9 below.

[2] = molecular target: T2, mouse PD-1 protein (R&D Systems cat no. 1021-PD) (mouse, UniProt Q02242 25-167); test: HTRF binding assay, 2 nM mouse PD1
T2 construct: Bought protein
T2 sequence (looked up): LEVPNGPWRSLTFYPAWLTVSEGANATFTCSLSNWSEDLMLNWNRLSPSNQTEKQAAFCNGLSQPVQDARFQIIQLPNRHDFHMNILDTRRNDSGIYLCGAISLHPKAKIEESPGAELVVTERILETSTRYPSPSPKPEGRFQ
Method: (§2) Purified VH were tested for their ability to bind to human PD1 (R&D Systems cat no. 1086-PD), cynomolgus PD-1 (Acro Biosystems cat no. PD-1-C5254) and mouse PD1 (R&D Systems cat no. 1021-PD) in an HTRF Binding assay format. All reagents and serially diluted VH were prepared in assay buffer containing PBS, 0.1% BSA and 0.4M Potassium Fluoride. Samples or assay buffer (non-specific binding) were incubated with 2 nM human/cynomolgus or mouse PD1, 1 nM Anti human-Fc Cryptate PAb (Cisbio cat. no. 61HFCKLB) and 30 nM anti His-D2 (CisBio cat no 61HISDLA) in black 384-shallow well assay plates for a minimum of 3 hours at room temperature. Time-resolved fluorescent emission at 620 nm and 665 nm was measured following excitation at 337 nm on the BMG PHERAstar plate reader. The HTRF ratio were calculated ((665 nm emission/620 nm emission)*10000) and the data corrected for (non-specific binding) to give the specific binding signal.

[3] = molecular target: T1, human PD-1 expressed on cells (CHO TREX …); test: cell-based or functional assay
[4] = molecular target: T1, human PD-1 expressed on cells (CHO TREX …); test: FMAT: inhibition of PDL-2 (100 pM) binding to CHO human PD-1 cells
Method: as §1

[5] = molecular target: T1, human PD-1 expressed on cells (CHO TREX …); test: FMAT: inhibition of human Fc tagged human PD-L1 (400 pM) binding to CHO human PD-1 cells; remark: listed apart in the source
Method: as §1

[6] = molecular target: T3, recombinant human PD-1 Fc chimera (human, UniProt Q15116 25-167); test: HTRF binding assay, 2 nM recombinant PD1, anti His-D2 and anti human-Fc cryptate
T3 construct: Bought protein (R&D 1086-PD in the HTRF assay); also called human PD-1-hu Fc; huPD-1Fc; not shown: human Fc
T3 sequence (Q15116 25-167 limits assumed, change not shown): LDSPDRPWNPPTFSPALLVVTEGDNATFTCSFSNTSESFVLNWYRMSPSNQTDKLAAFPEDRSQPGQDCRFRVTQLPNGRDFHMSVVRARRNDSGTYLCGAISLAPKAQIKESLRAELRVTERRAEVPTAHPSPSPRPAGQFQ
Method: as §2

[7] = molecular target: T4, cynomolgus PD-1 recombinant protein (Acro Biosystems cat no. PD-1-C5254) (cynomolgus); test: as above
T4 construct: Bought protein; also called cyno PD1
Method: as §2

[8] = molecular target: T5, Strep tagged recombinant human PD-1 (human, UniProt Q15116 25-167, limits assumed); test: SPR Biacore T200, single cycle kinetics, Strep tagged human PD-1 amine coupled, 1:1 model
T5 construct: whole entry named; also called Strep tagged human PD-1; not shown: Strep tag
T5 sequence (Q15116 25-167 limits assumed): as the sequence (Q15116 25-167 limits assumed, change not shown) above
Method: Single cycle kinetics assays were used to study the interaction between human PD-1 with Humabody VHs on a Biacore T200 instrument (GE Healthcare). Strep tagged recombinant human PD-1 was amine coupled to one flow cell of a CM-5 chip to create a low density surface (14 RU) using standard Biacore reagents. For the reference flow cell, a blank immobilisation was carried out. A five point, three-fold dilution series of each Humabody VH was made with a top concentration of 25 nM. The binding kinetics were followed by flowing the Humabody VH over the chip surface in HBS EP+ buffer at a flow rate of 30 μl/min. The contact time for each of the association steps was 180 seconds and the dissociation step was 3300 seconds. The data was fitted to a 1:1 binding model after double reference subtraction using the Biacore T200 Evaluation software.

[9] = molecular target: T3, recombinant human PD-1 Fc chimera; test: SPR Biacore T200, single cycle kinetics, human Fc tagged PD-1 captured on Protein G, 1:1 model
Method: Single cycle kinetics assays were used to study the interaction between human Fc tagged human PD-1 with Humabody® VH on a Biacore T200 instrument (GE Healthcare). Protein G was amine coupled to two flow cells of a CM-5 chip. Human Fc tagged recombinant human PD-1 was captured onto one of the flow cells. The other was used as the reference flow cell. A five point, three-fold dilution series of each Humabody® VH was made with a top concentration within the range of 50 to 150 nM. The binding kinetics were followed by flowing the Humabody® VH over the chip surface in HBS EP+ buffer at a flow rate of 30 μl/min. The contact time for each of the association steps was 180 seconds and the dissociation step was 3600 seconds. The data was fitted to a 1:1 binding model after double reference subtraction using the Biacore T200 Evaluation software.

[10] = molecular target: T3, recombinant human PD-1 Fc chimera; test: SPR Biacore T200, single cycle kinetics, human PD-1-hu Fc amine coupled to CM5, 1:1 model
Method: Binding kinetics of certain humabodies binding to human PD-1-hu Fc were measured by surface plasmon resonance (SPR) technology using Biacore T200 instrument (GE Healthcare). Recombinant human PD-1-hu Fc was immobilized by standard amine coupling to CM5 sensors chip (GE Healthcare) using 0.1 mg/ml solution of antigen in 10 mM sodium acetate at pH 5.5. For the reference flow cell, a blank immobilisation was carried out. Single cycle kinetics assays were used to study the interaction, a five point, three-fold dilution series of each Humabody® VH was made with a top concentration of 30 nM. The binding kinetics were followed by flowing the Humabody® VH over the chip surface in HBS EP+ buffer at a flow rate of 30 μl/min. The contact time for each of the association steps was 180 seconds and the dissociation step was varied between 1200-3600 seconds. The data was fitted to a 1:1 binding model after double reference subtraction using the Biacore T200 Evaluation software.

[11] = molecular target: T3, recombinant human PD-1 Fc chimera; test: BLI Octet, human PD-1-hu Fc amine coupled to biosensors, 1:1 model
Method: Binding kinetics for Humabody® 1.1a to human PD-1-hu Fc are shown below. These were measured in real-time bio-layer interferometer based biosensor Octet (ForteBio). Recombinant human PD-1-hu Fc was immobilized by standard amine coupling to amine reactive biosensors in 10 mM sodium acetate at pH 5.0. All the binding studies were performed in HBS-ET Octet kinetics buffer. Biosensors were always washed in Octet kinetics buffer in between different steps. A seven point, two-fold dilution series of each Humabody® VH was made with a top concentration of 30 nM. The contact time for each of the association steps was 300 seconds and the dissociation step was varied between 400-600 seconds. Kinetic association (kₐ) and dissociation (kd) rate constants were determined by processing and fitting the data to a 1:1 binding model using ForteBio Analysis software.

Row | Binder | IC50 [1] [pM] | binding result [2] | EC50 (M), NFAT-Luciferase reporter gene assay [3] [M] | IC50 [4] [pM] | IC50 [5] [pM] | EC50 [6] [pM] | EC50 [7] [pM] | Kd [8] [pM] | koff [8] [s⁻¹] | kon [8] [M⁻¹ s⁻¹] | Kd [9] [pM] | koff [9] [s⁻¹] | kon [9] [M⁻¹ s⁻¹] | Kd [10] [pM] | koff [10] [s⁻¹] | kon [10] [M⁻¹ s⁻¹] | koff [11] [s⁻¹] | kon [11] [M⁻¹ s⁻¹]
1 | B1 | 900 | no binding | 1.7e-09 | 1200 | 1300 | 1200 | 2100 | 111 | 4.86e-05 | 437000 | 0.0594 | 4.59e-08 | 773000 |  |  |  |  | 
2 | B2 |  | no binding | 1.1e-08 |  |  | 500 | 920 |  |  |  |  |  |  | 28 | 6.39e-06 | 228000 |  | 
3 | B3 | 1800 |  |  | 2300 | 4200 |  |  | 78.2 | 3.17e-05 | 405000 | 44.1 | 2.11e-05 | 479000 | 0.124 | 6.68e-08 | 537000 |  | 
4 | B4 |  |  |  |  |  |  |  |  |  |  |  |  |  | 676 | 7.35e-05 | 109000 | 0.000901 | 459000

Source: patent US20220306744A1 (CRESCENDO BIOLOGICS, published 2022)
